Paper doi:10.1101/577536

Target: fusion protein containing the GS120 linker
Experiment: FRET or BRET

- fold shift of the titration midpoint against the WT MBD2 peptide: 30 fold
Substance: V227A MBD2 peptide
